Assay results from PMC4695023, “Pancreatic adenocarcinoma upregulated factor serves as adjuvant by activating dendritic cells through stimulation of TLR4” (Oncotarget, 2015).

Key:
[1] = target: T1, Toll-like receptor 4 (TLR4), from DC lysate (mouse (endogenous in bone …, UniProt Q9QUK6 26-835)); test: BLI; BLItz system; Protein A sensor loaded with TLR2 or TLR4 antibody (0.1 mg/mL), then DC lysate (0.3 mg/mL, 150 sec); association with purified PAUF or BSA (0.3 mg/mL) for 150 sec, dissociation in PBS for 150 sec; KD from BLItz pro software as a non-advanced kinetics experiment; conditions: one partner purified
T1 construct: TLR4, endogenous in dendritic cells; captured from DC lysate with a TLR4/CD284 antibody on a Protein A sensor; Other lysate proteins (e.g. MD-2) may have been captured along with TLR4 (surmised); also called CD284; source: endogenous, DC lysate, captured on the sensor by TLR4/CD284 antibody (IMGENEX)
T1 sequence (looked up): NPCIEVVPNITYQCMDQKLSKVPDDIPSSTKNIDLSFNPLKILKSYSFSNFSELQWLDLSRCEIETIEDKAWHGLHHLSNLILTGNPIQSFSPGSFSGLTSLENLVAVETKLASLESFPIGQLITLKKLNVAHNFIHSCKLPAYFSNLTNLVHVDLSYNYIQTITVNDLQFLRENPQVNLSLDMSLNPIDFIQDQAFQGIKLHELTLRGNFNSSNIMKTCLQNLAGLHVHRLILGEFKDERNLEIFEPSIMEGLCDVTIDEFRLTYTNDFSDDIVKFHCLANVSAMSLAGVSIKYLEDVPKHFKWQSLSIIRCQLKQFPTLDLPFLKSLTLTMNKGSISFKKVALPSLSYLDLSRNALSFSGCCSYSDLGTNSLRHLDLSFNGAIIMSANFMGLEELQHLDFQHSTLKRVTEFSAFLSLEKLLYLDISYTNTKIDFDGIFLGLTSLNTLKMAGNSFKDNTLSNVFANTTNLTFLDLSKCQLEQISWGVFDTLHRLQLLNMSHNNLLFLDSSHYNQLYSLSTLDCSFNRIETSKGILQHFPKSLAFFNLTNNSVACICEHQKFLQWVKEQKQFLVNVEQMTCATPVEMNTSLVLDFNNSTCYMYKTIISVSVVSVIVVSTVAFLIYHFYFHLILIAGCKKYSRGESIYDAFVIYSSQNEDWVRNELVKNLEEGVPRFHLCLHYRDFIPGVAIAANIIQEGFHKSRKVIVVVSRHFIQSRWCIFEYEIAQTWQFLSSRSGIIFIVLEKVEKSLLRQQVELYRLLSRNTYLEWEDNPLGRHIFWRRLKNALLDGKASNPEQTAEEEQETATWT

[2] = target: T2, Toll-like receptor 2 (TLR2), from DC lysate (mouse (endogenous in bone …, UniProt Q9QUN7 25-784)); test: as above; conditions: one partner purified
T2 construct: TLR2, endogenous in dendritic cells; captured from DC lysate with an anti-mouse CD282 (TLR2) antibody on a Protein A sensor; Other lysate proteins may have been captured along with TLR2; also called CD282; source: endogenous, DC lysate, captured on the sensor by anti-mouse CD282 (TLR2) antibody
T2 sequence (Q9QUN7 25-784): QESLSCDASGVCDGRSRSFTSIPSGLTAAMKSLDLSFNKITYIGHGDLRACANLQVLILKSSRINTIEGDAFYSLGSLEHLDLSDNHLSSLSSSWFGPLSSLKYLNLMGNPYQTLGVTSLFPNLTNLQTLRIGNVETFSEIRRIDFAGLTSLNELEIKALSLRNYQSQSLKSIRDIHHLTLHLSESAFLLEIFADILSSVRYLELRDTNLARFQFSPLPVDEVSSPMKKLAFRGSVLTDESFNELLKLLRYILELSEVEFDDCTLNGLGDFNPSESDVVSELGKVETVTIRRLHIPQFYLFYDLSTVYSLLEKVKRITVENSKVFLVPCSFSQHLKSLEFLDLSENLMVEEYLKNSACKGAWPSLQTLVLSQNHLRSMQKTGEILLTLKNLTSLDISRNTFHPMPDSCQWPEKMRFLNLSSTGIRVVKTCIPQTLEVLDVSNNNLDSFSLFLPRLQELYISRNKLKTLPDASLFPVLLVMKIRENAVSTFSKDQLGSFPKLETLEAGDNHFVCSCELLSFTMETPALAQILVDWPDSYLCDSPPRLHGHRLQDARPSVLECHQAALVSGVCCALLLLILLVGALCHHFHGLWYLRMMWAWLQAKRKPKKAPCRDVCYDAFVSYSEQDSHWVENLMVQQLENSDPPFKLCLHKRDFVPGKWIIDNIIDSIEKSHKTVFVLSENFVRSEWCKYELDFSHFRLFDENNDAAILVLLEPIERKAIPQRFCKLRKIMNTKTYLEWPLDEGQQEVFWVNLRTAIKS

B1: Pancreatic adenocarcinoma upregulated factor (PAUF), recombinant, Fc removed (ligand, human, UniProt Q96DA0 17-172, looked up)
chain: GKMYGPGGGKYFSTTEDYDHEITGLRVSVGLLLVKSVQVKLGDSWDVKLGALGGNTQEVTLQPGEYITKVFVAFQAFLRGMVMYTSKDRYFYFGKLDGQISSAYPSQEGQVLVGIYGQYQLLGIKSIGFEWNYPLEEPTTEPPVNLTYSANSPVGR
notes: As a secreted protein it should lack its signal peptide (surmised); also called purified PAUF; PAUF protein; source: CHO/dhFr- cells, transfected with pcDNA3.1(+)-PAUF-Fc; secreted PAUF-Fc purified using Protein A resin, then Fc removed
Question: For B1, which Kd [1] is on record?
Answer: 145 nM

Question: What about the Kd [2] of the same binder?
Answer: 10.6 nM
